Test results as given in article PMC9574498.
Several values for one entry are separate records, joined by “and”; a condition that tells them apart may be missing. Identical values can stand only once.

Target: human P2X7R ballast domain (P2X7BD, residues 395–595) (human) (UniProt Q99572)
Assay: cross-linking

Sequence of human P2X7R ballast domain (P2X7BD, residues 395–595) (human) (Q99572 395-595): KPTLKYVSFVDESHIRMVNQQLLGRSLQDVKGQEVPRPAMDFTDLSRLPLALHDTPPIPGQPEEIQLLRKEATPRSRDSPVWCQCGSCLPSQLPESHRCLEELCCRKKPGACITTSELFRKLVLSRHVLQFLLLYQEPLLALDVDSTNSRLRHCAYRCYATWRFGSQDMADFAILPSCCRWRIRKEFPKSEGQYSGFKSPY

stoichiometry N (Ca^2+-CaM per P2X7BD): 1 and 2
Substance: human calmodulin (Ca^2+-CaM; apo-CaM in EDTA) (from UniProt P0DP23 1-149) (natural protein)
